One data set addresses TIE2 (Homo sapiens) (UniProt Q02763). Conditions: cited from earlier work.
Data set [1] concerns the molecule itself. The experiment in a line: non-reducing SDS polyacrylamide gel electrophoresis; purified recombinant angiopoietins run under non-reducing and reducing (1% 2-mercaptoethanol) conditions; oligomerization and multimerization states.

TIE2 (Homo sapiens), sequence (Q02763 23-748): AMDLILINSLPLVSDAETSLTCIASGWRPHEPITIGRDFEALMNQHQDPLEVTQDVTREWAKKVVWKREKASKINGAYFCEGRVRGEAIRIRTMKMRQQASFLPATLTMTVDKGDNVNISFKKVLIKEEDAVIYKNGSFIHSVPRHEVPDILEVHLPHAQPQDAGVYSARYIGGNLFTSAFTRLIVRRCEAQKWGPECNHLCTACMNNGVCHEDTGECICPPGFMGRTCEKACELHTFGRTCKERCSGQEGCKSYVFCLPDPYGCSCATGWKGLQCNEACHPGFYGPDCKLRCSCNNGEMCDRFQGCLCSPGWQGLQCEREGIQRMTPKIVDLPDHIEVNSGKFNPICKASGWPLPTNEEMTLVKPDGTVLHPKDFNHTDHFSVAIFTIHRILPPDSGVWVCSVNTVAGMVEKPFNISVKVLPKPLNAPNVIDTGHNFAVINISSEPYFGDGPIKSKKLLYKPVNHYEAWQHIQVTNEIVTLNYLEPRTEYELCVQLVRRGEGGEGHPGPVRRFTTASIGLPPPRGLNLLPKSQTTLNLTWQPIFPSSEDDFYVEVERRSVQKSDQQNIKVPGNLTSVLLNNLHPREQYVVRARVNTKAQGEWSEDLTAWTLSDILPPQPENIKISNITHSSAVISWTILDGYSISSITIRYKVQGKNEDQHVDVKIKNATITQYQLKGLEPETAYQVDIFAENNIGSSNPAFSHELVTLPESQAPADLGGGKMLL

What is called Kd is the equilibrium constant for the complex coming apart. On to Angiopoietin-1 (from UniProt Q15389), for which the dissociation constant Kd with TIE2 (Homo sapiens) is 3.7 nM.

B1: Purified recombinant human ANGPT4 (ligand, UniProt Q9Y264 25-503, looked up)
chain: TRQEADRGCETLVVQHGHCSYTFLLPKSEPCPPGPEVSRDSNTLQRESLANPLHLGKLPTQQVKQLEQALQNNTQWLKKLERAIKTILRSKLEQVQQQMAQNQTAPMLELGTSLLNQTTAQIRKLTDMEAQLLNQTSRMDAQMPETFLSTNKLENQLLLQRQKLQQLQGQNSALEKRLQALETKQQEELASILSKKAKLLNTLSRQSAALTNIERGLRGVRHNSSLLQDQQHSLRQLLVLLRHLVQERANASAPAFIMAGEQVFQDCAEIQRSGASASGVYTIQVSNATKPRKVFCDLQSSGGRWTLIQRRENGTVNFQRNWKDYKQGFGDPAGEHWLGNEVVHQLTRRAAYSLRVELQDWEGHEAYAQYEHFHLGSENQLYRLSVVGYSGSAGRQSSLVLQNTSFSTLDSDNDHCLCKCAQVMSGGWWFDACGLSNLNGVYYHAPDNKYKMDGIRWHYFKGPSYSLRASRMMIRPLDI
notes: human angiopoietin-4 (ANGPT4), purified recombinant protein from R & D Systems; Forms dimeric and higher oligomeric/multimeric complexes on non-reducing SDS-PAGE; also called angiopoietin-4; source: bought: R & D Systems (purified recombinant)
Turning to B1, the binding result in data set [1] is recorded as “binds”.

B2: Purified recombinant human ANGPT1 (ligand, UniProt Q15389 16-498, looked up)
chain: HIGCSNQRRSPENSGRRYNRIQHGQCAYTFILPEHDGNCRESTTDQYNTNALQRDAPHVEPDFSSQKLQHLEHVMENYTQWLQKLENYIVENMKSEMAQIQQNAVQNHTATMLEIGTSLLSQTAEQTRKLTDVETQVLNQTSRLEIQLLENSLSTYKLEKQLLQQTNEILKIHEKNSLLEHKILEMEGKHKEELDTLKEEKENLQGLVTRQTYIIQELEKQLNRATTNNSVLQKQQLELMDTVHNLVNLCTKEGVLLKGGKREEEKPFRDCADVYQAGFNKSGIYTIYINNMPEPKKVFCNMDVNGGGWTVIQHREDGSLDFQRGWKEYKMGFGNPSGEYWLGNEFIFAITSQRQYMLRIELMDWEGNRAYSQYDRFHIGNEKQNYRLYLKGHTGTAGKQSSLILHGADFSTKDADNDNCMCKCALMLTGGWWFDACGPSNLNGMFYTAGQNHGKLNGIKWHYFKGPSYSLRSTTMMIRPLDF
notes: human angiopoietin-1 (ANGPT1), purified recombinant protein from R & D Systems; Forms various-sized oligomers/multimers on non-reducing SDS-PAGE; also called angiopoietin-1; source: bought: R & D Systems (purified recombinant)
Consider B2, for which the binding result in data set [1] was “binds”.

B3: Purified recombinant human ANGPT2 (ligand, UniProt O15123 19-496, looked up)
chain: YNNFRKSMDSIGKKQYQVQHGSCSYTFLLPEMDNCRSSSSPYVSNAVQRDAPLEYDDSVQRLQVLENIMENNTQWLMKLENYIQDNMKKEMVEIQQNAVQNQTAVMIEIGTNLLNQTAEQTRKLTDVEAQVLNQTTRLELQLLEHSLSTNKLEKQILDQTSEINKLQDKNSFLEKKVLAMEDKHIIQLQSIKEEKDQLQVLVSKQNSIIEELEKKIVTATVNNSVLQKQQHDLMETVNNLLTMMSTSNSAKDPTVAKEEQISFRDCAEVFKSGHTTNGIYTLTFPNSTEEIKAYCDMEAGGGGWTIIQRREDGSVDFQRTWKEYKVGFGNPSGEYWLGNEFVSQLTNQQRYVLKIHLKDWEGNEAYSLYEHFYLSSEELNYRIHLKGLTGTAGKISSISQPGNDFSTKDGDNDKCICKCSQMLTGGWWFDACGPSNLNGMYYPQRQNTNKFNGIKWYYWKGSGYSLKATTMMIRPADF
notes: human angiopoietin-2 (ANGPT2), purified recombinant protein from R & D Systems; Runs predominantly as disulfide-linked dimers on non-reducing SDS-PAGE; also called angiopoietin-2; source: bought: R & D Systems (purified recombinant)
A word on the stoichiometry N: it is a count of units in the complex or per binding partner. For B3, the “stoichiometry N” value in data set [1] stood at 2.

B4: Purified recombinant mouse Angpt4 (ligand, UniProt Q9WVH6 22-509, looked up)
chain: QHRGPEAGGHRQIHQVRRGQCSYTFVVPEPDICQLAPTAAPEALGGSNSLQRDLPASRLHLTDWRAQRAQRAQRVSQLEKILENNTQWLLKLEQSIKVNLRSHLVQAQQDTIQNQTTTMLALGANLMNQTKAQTHKLTAVEAQVLNQTLHMKTQMLENSLSTNKLERQMLMQSRELQRLQGRNRALETRLQALEAQHQAQLNSLQEKREQLHSLLGHQTGTLANLKHNLHALSSNSSSLQQQQQQLTEFVQRLVRIVAQDQHPVSLKTPKPVFQDCAEIKRSGVNTSGVYTIYETNMTKPLKVFCDMETDGGGWTLIQHREDGSVNFQRTWEEYKEGFGNVAREHWLGNEAVHRLTSRTAYLLRVELHDWEGRQTSIQYENFQLGSERQRYSLSVNDSSSSAGRKNSLAPQGTKFSTKDMDNDNCMCKCAQMLSGGWWFDACGLSNLNGIYYSVHQHLHKINGIRWHYFRGPSYSLHGTRMMLRPMGA
notes: mouse angiopoietin-4 (Angpt4, previously named Ang3), purified recombinant protein from R & D Systems; also called angiopoietin-4; Ang3; source: bought: R & D Systems (purified recombinant)
In the case of B4, the binding result in data set [1] was “binds”.

The values above are taken from paper PMC6239434, “Angiopoietin-4-dependent venous maturation and fluid drainage in the peripheral retina” (eLife, 2018).
